Measurements published in paper PMC5681996.

Experiments:
[1] = biological target: T1, TDP-43 WT (UniProt Q13148 1-414); assay: EMSA
[2] = biological target: T1, TDP-43 WT; assay: CD
[3] = biological target: T1, TDP-43 WT; assay: CD; remark: listed apart in the source

T1 sequence (Q13148 whole entry): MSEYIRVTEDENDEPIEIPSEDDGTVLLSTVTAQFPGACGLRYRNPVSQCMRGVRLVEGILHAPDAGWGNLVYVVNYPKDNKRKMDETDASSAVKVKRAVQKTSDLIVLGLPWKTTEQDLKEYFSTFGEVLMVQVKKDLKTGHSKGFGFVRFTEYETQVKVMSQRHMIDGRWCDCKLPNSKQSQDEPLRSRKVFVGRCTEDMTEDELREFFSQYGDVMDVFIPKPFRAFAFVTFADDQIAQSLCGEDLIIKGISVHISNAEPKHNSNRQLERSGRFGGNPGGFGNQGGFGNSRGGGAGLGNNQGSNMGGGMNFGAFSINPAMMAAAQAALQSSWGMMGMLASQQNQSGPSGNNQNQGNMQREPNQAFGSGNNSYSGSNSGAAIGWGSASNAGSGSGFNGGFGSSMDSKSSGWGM

| Binder | binding result [1] | other results |
| --- | --- | --- |
| UGGAAUGGAAUGGAAUGGAAUGGAAUGGAAUGGAAUGGAA (ssRNA) [(UGGAA)8] | binds |  |
| UGGAAUGGAAUGGAAUGGAA (ssRNA) [(UGGAA)4] |  | binding result [2]: binds |
| UGUGUGUGUGUGUGUG (ssRNA) [(UG)8] | binds |  |
| UGUGUGUG (ssRNA) [(UG)4] |  | binding result [3]: binds |
